From US8809529B2, “Imidazo[1,2-α]pyrazine derivatives” (Promega Corporation, priority 2010, dated 2014)

Assays:
[1] = target: T1, L27V02 enzyme (Oplophorus gracilirostris, UniProt Q9GV45, A31E/A60N/A81I/F95D/I117V/K70R/L54V/L99Q/M102K/N193R/P142E/Q151K/Q38R/Q45L/V71I/Y165I); experiment: Luminescence of compounds with purified L27V02 enzyme; assay type: biochemical; details: 20 μM compound, 36 pM L27V02, pH 7, 3 min
T1 construct: The N-terminus of the OgLuc variant L27V is methionine, valine and phenylalanine, i.e., MVF; made in house
Method: Compounds PBI-4525, PBI-4540 and PBI-4541 were screened for their ability to detect luminescence. […] The assay reagent was then mixed with 36 pM purified L27V02 enzyme (described in Example 25B), in DMEM without Phenol Red and 0.1% PRIONEX®. As a control, assay buffer with 20 μM PBI-3939 or PBI-4528 was used. Luminescence was measured as previously described 3 min after the assay reagent was added to the enzyme mixture.

[2] = target: T2, OgLuc variant 9B8 opt (Oplophorus gracilirostris, UniProt Q9GV45, A31E/A60K/A81I/F95Y/I117V/L99Q/M102K/N193R/P142E/Q151K/Q38R/Q45L/V71I/Y165I); experiment: Multiplex assay with red click beetle luciferase and 9B8 opt (modified DUAL-GLO); assay type: biochemical
T2 construct: made in house; host or cells: E. coli (crude lysate)
Method: A. Lysates of E. coli expressing the variant 9B8 opt were prepared as previously described in Example 27 and diluted 1000-fold in DMEM without phenol red+0.1% PRIONEX®. Luminescence from a sample containing 6.3 μg/mL of purified red click beetle luciferase and E. coli lysate expressing the variant 9B8 opt was detected using a modified DUAL-GLO® Luciferase Assay System (Promega Corp.). DUAL-GLO® STOP&GLO® Reagent containing 20 μM coelenterazine-h and DUAL-GLO® STOP&GLO® Reagent containing 20 μM PBI 3939 were used, according to the manufacturer's protocol, to detect the red click beetle luciferase and OgLuc variant 9B8 luciferase from a single sample. Three replicates were performed.
Luminescence was detected on a Turner MODULUS™ luminometer. […] The standard deviation (“+/−”) and coefficient of variance (“CV”) are also shown. A “no coelenterazine” control was performed to illustrate the amount of quenching of the red click beetle signal by the DUAL-GLO® STOP&GLO® Reagent of the DUAL-GLO® Luciferase Assay System in the absence of coelenterazine. The “no coelenterazine” control yielded a 349-fold quench.

[3] = tested on: HEK293 cells; experiment: Toxicity of coelenterazines in HEK293 cells (CELLTITER-GLO); details: 24 hrs after compound addition
[4] = Stability of coelenterazines in reporter reagent buffer (T90); details: time for luminescent signal to decay by 10% at 22° C.; read with OgLuc variant IV lysate
[5] = tested on: cAMP response element (CRE); experiment: CRE transcriptional reporter, forward transfection, HEK293 cells; assay type: cell-based, human; parameters: Response: scale not given here; details: for baseline: 10 nM FSK; for baseline / RLU (10 μM FSK): 3 h
Method: HEK293 cells were plated at 15,000 cells/well in six 96-well tissue culture plates. Cells were grown in 100 μL of DMEM+10% FBS+1× non-essential amino acids (NEAA) and incubated overnight at 37° C. The cells were transiently transfected with either 10 ng or 100 ng plasmid DNA/well of pGL4.29 9B8 opt, pGL4.29 9B8 opt-P, or pGL4.29. Plasmid DNA was mixed with 850 μL of OPTI-MEM® (Invitrogen) and 32.4 μL of FUGENE® HD transfection reagent (Promega Corp.) and incubated at room temperature for 10 min. Eight μL of the transfection/reporter DNA mixture was added to the appropriate wells (2 constructs/plate). Cells were incubated for 4 hrs at 37° C. The medium was replaced with OPTI-MEM®+0.5% dialyzed FBS+1×NEAA+1× sodium pyruvate+1× Penn-Strep and incubated overnight at 37° C.
A lytic reagent containing 100 mM MES pH 6.1, 1 mM CDTA, 150 mM KCl, 35 mM thiourea, 2 mM DTT, 0.25% TERGITOL® NP-9 (v/v), 0.025% MAZU® DF 204, and 20 μM PBI-3939 was added to the cells containing pGL4.29 9B8 opt or pGL4.29 9B8 opt-P and allowed to incubated for 10 min at room temperature (100 μL lytic reagent added to 100 μL cells). ONE-GLO™ assay reagent (Promega Corp.) was added to cells containing pGL4.29 and used according to the manufacturer's protocol (100 μL reagent added to 100 μL cells). Luminescence was measured on a GLOMAX® Luminometer.

[6] = tested on: antioxidant response element (ARE); experiment: ARE transcriptional reporter, reverse transfection, HEK293 cells; assay type: cell-based, human; details: for baseline: 24 h, 100 ng DNA
Method: HEK293 cells were trypsinized (T75 flask, 3 mL trypsin) and resuspended in […] (approximately 8.9×10^6 total cells) in medium containing DMEM+10% FBS+1×NEAA. Each transcriptional reporter was prepared for transfection by mixing 1.2 mL OPTI-MEM®, 12 μL transcription reporter DNA (100 ng) and 36 μL FUGENE® HD transfection reagent together and incubated at room temperature for 35 min. Following incubation, 624 μL of the transfection/reporter DNA mixture was added to 12 mL of cell suspension and mixed by inversion. After mixing, 100 μL of the cell/DNA mixture was added to wells of a 96-well plate (2 constructs/plate). The cells were incubated at 37° C. for 22 hrs. Tert-butylhydroquinone (a Nrf2 stabilizer; tBHQ; 1 μM (“baseline”) or 20 μM) or sulphoraphane, (an organosulfer antioxidant known to activate Nrf2; 1 μM (“baseline”) or 20 μM) in OPTI-MEM® was added to each well and incubated at 37° C. for 24 hrs. Cells were lysed with 100 μL lytic reagent as described above for the forward transfection. Luminescence was measured on a GLOMAX® Luminometer.

[7] = tested on: CRE; experiment: CRE transcriptional reporter, bulk transfection, HEK293 cells; assay type: cell-based, human
Method: (§1) The transcriptional reporter containing […] and 9B8 opt-P was used in the bulk transfection of HeLa cells
(§2) HEK293, NIH3T3, or HeLa cells were plated to a single well of a 6-well tissue culture plate the day before transfection at a density of 4.5×10^5 cells/well in 3 mL complete medium (DMEM+10% FBS+1×NEAA+1× sodium pyruvate) for HEK293 cells, 3×10^5 cellsNvell in 3 mL complete medium (DMEM+10% fetal calf serum (FCS)+1×NEAA+1× sodium pyruvate) for NIH3T3 cells, or 9.9×10^5 cells/well in 3 mL complete medium (DMEM+10% FBS+1×NEAA) for HeLa cells. Cells were grown overnight at 37° C.
(§3) 3,300 ng of reporter plasmid DNA in 155 4 OPTI-MEM® was mixed with 9.9 μL FUGENE® HD transfection reagent, vortexed briefly, and incubated at room temperature for 10 min. The CRE transcriptional reporters were used to transfect HEK293 and NIH3T3 cells. The HRE transcriptional reporters were used to transfect HeLa cells. The reporter mixture was added to cells and mixed by gentle rocking followed by incubation at 37° C. for 6 hrs (HEK293 and NIH3T3) or 3 hrs (HeLa). Cells were then trypsinized and resuspended in medium (DMEM+10% FBS+1×NEAA+1× sodium pyruvate for HEK293 cells, DMEM+10% FCS+1×NEAA+1× sodium pyruvate for NIH3T3 cells, or DMEM+10% FBS+1×NEAA for HeLa cells), followed by plating to the individual wells of a 96-well plate (20,000 cells/100 μL for HEK293, 10,000 cells/100 4 for NIH3T3, or […] for HeLa) and incubated at 37° C. overnight.
(§4) FSK (CRE stimulator) or 17-AAG (HRE stimulator; 17-Allylamino-demethoxy geldanamycin) in OPTI-MEM® was added to the cells (10 nM or 10 μM final concentration for FSK; 1 nM or 1 μM final concentration for 17-AAG) and incubated at 37° C. for 4 hrs (FSK) or 6 hrs (17-AAG). Plates were removed from the incubator and allowed to equilibrate to room temperature for 25 min. Cells were lysed with 100 μL lytic reagent as described above for the forward transfection. Luminescence was measured on a GLOMAX® Luminometer.

[8] = tested on: CRE; experiment: CRE transcriptional reporter, bulk transfection, NIH3T3 cells; assay type: cell-based
Method: as §1, §2, §3, §4

[9] = tested on: heat shock response element (HRE); experiment: HRE transcriptional reporter, bulk transfection, HeLa cells; assay type: cell-based
Method: as §1, §2, §3, §4

[10] = tested on: antioxidant response element (ARE); experiment: ARE transcriptional reporter, reverse transfection, HEK293 cells; assay type: cell-based, human; details: 24 h, 100 ng DNA

T1 sequence (Q9GV45 28-196 with tags or gaps with the stated changes limits assumed, one chain of several): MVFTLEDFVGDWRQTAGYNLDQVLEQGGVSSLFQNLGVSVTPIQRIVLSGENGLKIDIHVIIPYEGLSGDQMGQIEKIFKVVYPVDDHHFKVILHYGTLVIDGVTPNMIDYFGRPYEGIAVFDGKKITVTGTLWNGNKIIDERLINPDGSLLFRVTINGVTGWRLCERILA

O=c1c(Cc2ncc[nH]2)nc2c(Cc3ccccc3)[nH]c(-c3ccccc3)cn1-2 [PBI-4541, 2-((1H-imidazol-2-yl)methyl)-8-benzyl-6-phenylimidazo[1,2-a]pyrazin-3(7H)-one]
RLU [1]: 5,676 RLU

coelenterazine-h [Coelenterazine h, reference compound]
Ogluc (average luminescence generated by 9B8 opt) ([2]; 20 μM substrate in DUAL-GLO STOP&GLO Reagent): 921,440 | +/− coel ([2]; Ogluc signal relative to no coelenterazine control): 64 | Viability (normalized to vehicle (DMSO) control) (%) [3]: 100% | Stability (pH 8) (T90 in hrs) [4]: 2.1 hrs

B1: 9B8 opt-P: 9B8 opt further comprising the PEST protein degradation sequence (protein)
chain: MVFTLEDFVGDWRQTAGYNLDQVLEQGGLSSLFQKLGVSVTPIQKIVLSGENGLKIDIHVIIPYEGLSGYQMGQIEKIFKVVYPVDDHHFKVILHYGTLVIDGVTPNMIDYFGRPYEGIAVFDGKKITVTGTLWNGNKIIDERLINPDGSLLFRVTINGVTGWRLCERILANSHGFPPEVEEQAAGTLPMSCAQESGMDRHPAACASARINV
Response ([5]; 10 ng DNA for transfection): 121 | baseline ([5]; 10 ng DNA for transfection): 11179 | RLU (10 μM FSK) ([5]; 10 ng DNA for transfection): 1,353,459 RLU | Response ([5]; 100 ng DNA for transfection): 168 | baseline ([5]; 100 ng DNA for transfection): 122,071 | RLU (10 μM FSK) ([5]; 100 ng DNA for transfection): 20,544,753 RLU | baseline ([6]; 1 μM sulphoraphane): 258,406 | baseline ([6]; 1 μM tBHQ): 317,238 | Response ([6]; sulphoraphane): 15 | Response ([6]; tBHQ): 27 | baseline ([7]; HEK293, 10 nM FSK, 4 h): 3,960,000 | RLU (10 mM FSK) ([7]; HEK293, 4 h): 460,000,000 RLU | Response ([7]; HEK293, FSK): 116 | baseline ([8]; NIH3T3, 10 nM FSK, 4 h): 410,461 | RLU (10 mM FSK) ([8]; NIH3T3, 4 h): 3,720,000 RLU | Response ([8]; NIH3T3, FSK): 9 | Response ([9]; 17-AAG): 12 | RLU (1 mM 17-AAG) ([9]; 6 h): 3,204,000 RLU | baseline ([9]; 6 h): 278,118 | RLU (20 μM sulphoraphane) [10]: 3,940,000 RLU | RLU (20 μM tBHQ) [10]: 8,460,000 RLU
